From US20260070975A1 (SANTA ANA BIO, published 2026) come the findings set out here.

Assay [1] deals with T1, Human siglec-6 expressed on the cell surface (HMC1.2 cells; HEK293 cells expressing human siglec-6) (human, UniProt O43699 27-453).
T1 construct: whole, on cells; also called cell surface expressed siglec-6; CD327
Kind of assay: flow cytometry on HMC1.2 cells. As to the method:
(§1) Target binding of siglec-6 antibodies to siglec-6-expressing cells was assessed by flow cytometry. Cultured HMC1.2 cells were resuspended in FACS Blocking Buffer (PBS+10% normal human serum) for 30 minutes. Following washing, cells were incubated with siglec-6 antibodies in FACS Buffer (PBS+0.5% bovine serum albumin+0.09% sodium azide) and incubated at 4° C. for 30 minutes, washed and incubated with PE-labeled anti-human or anti-mouse secondary antibodies. Cells were incubated at 4° C. for 30 minutes in the dark. Following washing, cytofluorimetric analysis was conducted using a BD FACS Symphony A3 (BD Biosciences). Cells were sorted by scatter properties and separated for single cell analysis using side scatter width vs side scatter area. Antibody binding to cells was quantitated by measuring fluorescent emissions of excitation wavelength of 561 nm using a 586/15 nm filter. All tested siglec-6 antibodies were capable of binding to cells expressing siglec-6.

The target of assay [2] is T2, c-Kit expressed on the cell surface of M-07e cells (human, UniProt P10721 26-976).
T2 construct: whole, on cells; also called cell surface expressed c-Kit; CD117
Kind of assay: flow cytometry on M-07e cells. As to the method:
as §1, with “c-Kit” for “siglec-6”, “c-Kit-expressing” for “siglec-6-expressing”, “M-07e” for “HMC1.2”, “anti-human” for “anti-human or anti-mouse”, “antibody.” for “antibodies.”, “c-Kit.” for “siglec-6.”
For orientation: In flow cytometry, cells or beads pass a laser one at a time.

In assay [3] the target is T3, His-tagged FLT3 extracellular domain (UniProt P36888 27-543, limits assumed).
T3 construct: extracellular domain; also called c-Kit family member; not shown: His tag
T3 sequence (looked up): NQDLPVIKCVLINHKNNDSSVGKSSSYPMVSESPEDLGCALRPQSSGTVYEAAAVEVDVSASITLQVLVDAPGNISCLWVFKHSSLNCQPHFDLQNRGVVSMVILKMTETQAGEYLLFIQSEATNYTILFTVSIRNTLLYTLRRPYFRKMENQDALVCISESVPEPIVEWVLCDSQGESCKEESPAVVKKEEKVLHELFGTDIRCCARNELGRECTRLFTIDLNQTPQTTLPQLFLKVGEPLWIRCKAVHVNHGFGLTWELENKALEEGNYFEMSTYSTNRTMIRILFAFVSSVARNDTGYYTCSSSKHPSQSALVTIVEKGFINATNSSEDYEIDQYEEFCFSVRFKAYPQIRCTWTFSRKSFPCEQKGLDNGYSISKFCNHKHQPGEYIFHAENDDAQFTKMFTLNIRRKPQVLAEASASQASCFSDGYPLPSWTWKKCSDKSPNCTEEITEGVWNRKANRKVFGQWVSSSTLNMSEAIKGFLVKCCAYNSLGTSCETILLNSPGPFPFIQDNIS
In words: ELISA, His-tagged extracellular domain coated. Here is the method: (§2) His-tagged human c-Kit, His-tagged cynomolgus c-Kit, and His-tagged PDGFRa, PDGFRb, CSF1R, and FLT3 extracellular domains were immobilized on 96 well ELISA plates. Plates were washed with PBST (Phosphate buffered saline+0.05% Tween 20) and blocked for 1 hour with 1% BSA in PBS. Following washing with PBST, mAbs were added to the coated plate and incubated for 2 hours at room temperature. Plates were washed and incubated with HRP-conjugated goat anti-human IgG secondary antibody for 1 hour at room temperature. Following washing, antibody binding was detected colorimetrically by adding 3,3′,5,5′-tetramethylbenzidine (TMB) and incubated at room temperature for 10-20 minutes before adding 2.5N sulfuric acid stopping solution. Absorbance at 450 nm was measured on a plate reader (PerkinElmer). Data was analyzed using GraphPad Prism.

For assay [4], the target named is T4, His-tagged CSF1R extracellular domain (UniProt P07333 20-517, limits assumed).
T4 construct: extracellular domain; also called c-Kit family member; not shown: His tag
In words: ELISA, His-tagged extracellular domain coated. As to the method: as §2
A general note: An ELISA detects its analyte on a solid surface through an enzyme-linked reagent.

In assay [5] the target is T5, His-tagged PDGFRb extracellular domain (UniProt P09619 33-532, limits assumed).
T5 construct: extracellular domain; also called c-Kit family member; not shown: His tag
Kind of assay: ELISA, His-tagged extracellular domain coated. As to the method:
as §2

For assay [6], the target named is T6, His-tagged PDGFRa extracellular domain (UniProt P16234 24-528, limits assumed).
T6 construct: extracellular domain; also called c-Kit family member; not shown: His tag
Kind of assay: ELISA, His-tagged extracellular domain coated. Here is the method:
as §2

Assay [7] has as its target T2, c-Kit expressed on the cell surface of …. Kind of assay: cell-based or functional assay.
Assay [8] concerns the target Human c-Kit (BLI analyte) (human, UniProt P10721 26-520, limits assumed). In words: BLI (Octet), antibody on capture sensor. Here is the method: (§3) Further, binding affinities of c-Kit antibodies to human c-Kit and cynomolgus c-Kit were measured by biolayer interferometry ([…]) using an Octect instrument. Briefly, capture sensors were loaded with test antibodies with 3-fold dilutions. The association and dissociation rates to were determined and used to calculate the equilibrium dissociation constant KD (Table 3).
A general note: BLI is a label-free optical method that tracks binding on a fibre tip over time.

Assay [9] deals with T7, Cynomolgus c-Kit (BLI analyte) (cynomolgus).
T7 construct: also called Cynomoguls c-Kit
Kind of assay: BLI (Octet), antibody on capture sensor. As to the method: as §3

T6 sequence (P16234 24-528 limits assumed): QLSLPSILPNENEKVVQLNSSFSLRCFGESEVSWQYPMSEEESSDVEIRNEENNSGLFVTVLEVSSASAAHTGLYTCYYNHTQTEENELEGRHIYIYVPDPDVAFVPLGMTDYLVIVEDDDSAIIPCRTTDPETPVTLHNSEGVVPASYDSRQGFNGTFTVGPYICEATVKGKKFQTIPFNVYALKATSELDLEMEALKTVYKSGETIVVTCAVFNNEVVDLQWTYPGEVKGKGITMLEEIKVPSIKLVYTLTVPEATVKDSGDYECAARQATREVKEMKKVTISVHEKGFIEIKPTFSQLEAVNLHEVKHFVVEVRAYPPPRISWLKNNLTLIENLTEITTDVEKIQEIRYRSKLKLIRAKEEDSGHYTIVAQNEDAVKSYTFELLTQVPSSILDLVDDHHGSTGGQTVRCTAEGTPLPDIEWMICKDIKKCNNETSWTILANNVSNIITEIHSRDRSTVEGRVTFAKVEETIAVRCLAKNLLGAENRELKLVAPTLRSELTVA
T2 sequence (P10721 26-976): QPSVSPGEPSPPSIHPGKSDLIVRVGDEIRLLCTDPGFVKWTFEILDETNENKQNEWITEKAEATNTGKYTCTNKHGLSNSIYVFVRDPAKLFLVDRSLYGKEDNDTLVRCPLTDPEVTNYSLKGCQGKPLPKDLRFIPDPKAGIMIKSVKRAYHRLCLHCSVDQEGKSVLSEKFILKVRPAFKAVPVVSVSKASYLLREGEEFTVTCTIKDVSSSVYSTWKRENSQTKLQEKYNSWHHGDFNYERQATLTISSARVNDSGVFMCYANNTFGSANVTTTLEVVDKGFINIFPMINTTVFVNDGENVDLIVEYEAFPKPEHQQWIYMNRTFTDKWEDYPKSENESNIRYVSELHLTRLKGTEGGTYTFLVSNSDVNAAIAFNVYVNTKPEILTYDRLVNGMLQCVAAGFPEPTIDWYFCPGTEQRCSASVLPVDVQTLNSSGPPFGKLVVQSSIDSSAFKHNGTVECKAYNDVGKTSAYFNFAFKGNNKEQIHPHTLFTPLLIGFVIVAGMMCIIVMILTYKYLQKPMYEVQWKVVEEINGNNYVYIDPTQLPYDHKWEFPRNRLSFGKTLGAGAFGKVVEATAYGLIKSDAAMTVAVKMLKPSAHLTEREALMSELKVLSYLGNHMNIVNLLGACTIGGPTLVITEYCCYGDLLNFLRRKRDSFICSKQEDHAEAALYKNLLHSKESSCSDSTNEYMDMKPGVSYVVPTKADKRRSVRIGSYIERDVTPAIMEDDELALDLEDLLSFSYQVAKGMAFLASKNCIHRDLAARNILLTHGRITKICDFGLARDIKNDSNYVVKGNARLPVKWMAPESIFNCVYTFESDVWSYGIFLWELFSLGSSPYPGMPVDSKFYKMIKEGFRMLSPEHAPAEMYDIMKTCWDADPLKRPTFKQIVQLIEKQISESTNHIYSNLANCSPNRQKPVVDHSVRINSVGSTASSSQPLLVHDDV
T4 sequence (P07333 20-517 limits assumed): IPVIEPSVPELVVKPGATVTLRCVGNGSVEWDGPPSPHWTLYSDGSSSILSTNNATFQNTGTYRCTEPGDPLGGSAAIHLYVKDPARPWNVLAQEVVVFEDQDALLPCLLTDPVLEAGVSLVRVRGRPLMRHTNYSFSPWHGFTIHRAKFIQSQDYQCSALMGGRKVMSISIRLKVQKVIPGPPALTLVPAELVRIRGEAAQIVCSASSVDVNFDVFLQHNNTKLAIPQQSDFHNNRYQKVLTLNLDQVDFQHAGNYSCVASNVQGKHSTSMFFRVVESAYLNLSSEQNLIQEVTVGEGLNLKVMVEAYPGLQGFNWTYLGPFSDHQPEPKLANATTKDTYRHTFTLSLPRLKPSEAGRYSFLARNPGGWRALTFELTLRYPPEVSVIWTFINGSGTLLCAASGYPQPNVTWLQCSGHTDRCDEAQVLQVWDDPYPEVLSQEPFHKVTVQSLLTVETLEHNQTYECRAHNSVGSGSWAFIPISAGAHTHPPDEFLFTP
Sequence of Human c-Kit (BLI analyte) (P10721 26-520 limits assumed): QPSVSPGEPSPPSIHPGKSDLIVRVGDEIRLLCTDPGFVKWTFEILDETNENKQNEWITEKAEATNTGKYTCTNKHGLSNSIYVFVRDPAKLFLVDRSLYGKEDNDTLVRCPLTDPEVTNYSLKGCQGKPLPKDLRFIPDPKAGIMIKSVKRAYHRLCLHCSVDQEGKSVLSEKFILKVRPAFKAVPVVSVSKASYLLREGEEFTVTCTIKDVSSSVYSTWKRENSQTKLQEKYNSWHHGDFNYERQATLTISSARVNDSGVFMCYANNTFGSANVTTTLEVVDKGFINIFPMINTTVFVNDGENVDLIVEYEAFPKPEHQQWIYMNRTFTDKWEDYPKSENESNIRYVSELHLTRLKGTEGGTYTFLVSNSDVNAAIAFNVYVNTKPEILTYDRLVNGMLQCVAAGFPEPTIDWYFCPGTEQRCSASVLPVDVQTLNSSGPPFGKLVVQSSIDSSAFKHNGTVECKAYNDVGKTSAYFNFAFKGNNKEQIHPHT
T5 sequence (P09619 33-532 limits assumed): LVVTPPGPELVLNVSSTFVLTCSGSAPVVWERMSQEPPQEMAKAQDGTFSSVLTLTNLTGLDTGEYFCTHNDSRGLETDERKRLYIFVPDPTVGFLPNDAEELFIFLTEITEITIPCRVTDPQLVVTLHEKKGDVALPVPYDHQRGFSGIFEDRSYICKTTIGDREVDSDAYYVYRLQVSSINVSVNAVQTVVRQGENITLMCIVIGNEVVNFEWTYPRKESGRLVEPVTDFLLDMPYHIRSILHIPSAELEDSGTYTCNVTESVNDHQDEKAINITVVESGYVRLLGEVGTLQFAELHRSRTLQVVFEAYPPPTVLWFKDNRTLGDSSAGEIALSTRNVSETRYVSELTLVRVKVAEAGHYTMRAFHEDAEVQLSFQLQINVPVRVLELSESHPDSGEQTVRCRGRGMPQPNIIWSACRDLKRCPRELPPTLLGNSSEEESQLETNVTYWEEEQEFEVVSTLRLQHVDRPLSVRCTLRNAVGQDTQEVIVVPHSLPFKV
T1 sequence (O43699 27-453): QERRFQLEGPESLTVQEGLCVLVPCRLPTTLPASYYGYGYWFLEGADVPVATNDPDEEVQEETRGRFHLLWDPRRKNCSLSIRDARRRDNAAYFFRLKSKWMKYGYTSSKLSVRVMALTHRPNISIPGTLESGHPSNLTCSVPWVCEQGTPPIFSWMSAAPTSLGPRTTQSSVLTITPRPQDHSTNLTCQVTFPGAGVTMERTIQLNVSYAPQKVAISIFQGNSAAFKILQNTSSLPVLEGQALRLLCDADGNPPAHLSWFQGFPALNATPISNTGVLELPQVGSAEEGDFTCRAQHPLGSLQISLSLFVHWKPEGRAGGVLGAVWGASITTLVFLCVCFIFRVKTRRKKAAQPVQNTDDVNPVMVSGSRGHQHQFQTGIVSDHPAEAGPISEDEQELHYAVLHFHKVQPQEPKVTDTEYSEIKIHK

B1: Murine anti-siglec-6 RND (mRND) (antibody, mouse IgG2a, kappa, V domains shown)
VH: QVQLQQPGAELVKPGASVKLSCKASGYAFTSYWMHWVKLRPGQGFEWIGEIYPTNGGTTYNEKFKRKATLTVDKSSSTAYMQLSSLTSEDSAVYYCTIEDFYAMDYWGQGTSVTVSS
VL: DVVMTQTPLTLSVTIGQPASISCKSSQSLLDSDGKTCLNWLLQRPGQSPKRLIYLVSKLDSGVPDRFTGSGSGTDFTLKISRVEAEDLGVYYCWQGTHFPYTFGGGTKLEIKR
notes: also called murine RND; copies: 2 + 2
Regarding B1, in assay [1], the MFI was 1970 MFI and the “Percent Positive for Siglec-6 on HMC1.2 cells” value is 99.9%.

B2: hSR1-1 (antibody, human IgG1, kappa, V domains shown)
VH: QVQLVQSGAEVKKPGASVKVSCKASGYTFTSYNMHWVRQAPGQGLEWMGVIYSGNGDTSYAQKFQGRVTMTADTSTSTAYMELSSLRSEDTAVYYCARERDTRFGNWGQGTLVTVSS
VL: DIQLTQSPSSLSASVGDRATITCRASESVDIYGNSFMHWYQQKPGKAPKLLIYLASNLESGVPSRFSGSGSGTDFTLTISSVQPEDFATYYCQQNNEDPYTFGQGTKLEIKR
notes: Humanized anti-c-Kit antibody; also called humanized SR1-1; hSR1-H2 / hSR1-L2
For the molecule B2, the “Measuring Fluorescent Intensity (MFI)” value in assay [2] turned out to be 5020 MFI. Besides, in [2], the “Percent Positive for c-Kit on M-07e cells” value (“Percent Positive for c-Kit” for short) was found to be 99.5%. Further, the binding result in assay [3], in [4], in assay [5] and in [6] was “no binding” each time. Also, in [7], the “IC50, inhibition of SCF-dependent proliferation of M-07e cells” value (“IC50, inhibition” for short) came to 142 pM. For the same molecule, the Kd in [8] stood at 199 pM; in [9], 232 pM.

B3: hSR1-2 (antibody, human IgG1, kappa, V domains shown)
VH: QVQLVQSGAEVKKPGASVKMSCKASGYTFTSYNMHWVRQAPGQGLEWIGVIYSGNGDTSYAQKFQGRATLTADTSTSTAYMELSSLRSEDTAVYYCARERDTRFGNWGQGTLVTVSS
VL: DIQLTQSPSSLSASVGDRATITCRASESVDIYGNSFMHWYQQKPGKAPKLLIYLASNLESGVPSRFSGSGSGTDFTLTISSVQPEDFATYYCQQNNEDPYTFGQGTKLEIKR
notes: also called humanized SR1-2; hSR1-H3 / hSR1-L2
For B3, the “Measuring Fluorescent Intensity (MFI)” value in assay [2] amounted to 5200 MFI. The “Percent Positive for c-Kit” value in [2] worked out at 99.7%. For the same molecule, the binding result in [3], in [4], in assay [5] and in assay [6] was “no binding” each time. The “IC50, inhibition” value in assay [7] was 142 pM. The Kd in assay [8] is 245 pM; in assay [9], 388 pM.

B4: hSR1-3 (antibody, human IgG1, kappa, V domains shown)
VH: QVQLVQSGAEVKKPGASVKVSCKASGYTFTSYNMHWVRQAPGQGLEWMGVIYSGNGDTSYAQKFQGRVTMTADKSTSTAYMELSSLRSEDTAVYYCARERDTRFGNWGQGTLVTVSS
VL: DIQLTQSPSSLSASVGDRATITCRASESVDIYGNSFMHWYQQKPGKAPKLLIYLASNLESGVPSRFSGSGSGTDFTLTISSVQPEDFATYYCQQNNEDPYTFGQGTKLEIKR
notes: also called humanized SR1-3; hSR1-H2b / hSR1-L2
As for B4, in [2], the “Measuring Fluorescent Intensity (MFI)” value was 5190 MFI. The “Percent Positive for c-Kit” value in [2] was determined as 99.8%. Besides, the binding result in assay [3], in assay [4], in [5] and in assay [6] was “no binding” in each case. The “IC50, inhibition” value in assay [7] came to 113 pM. For the same molecule, the dissociation constant Kd in assay [8] came to 256 pM; in assay [9] it was 332 pM.

B5: hSR1-5 (antibody, human IgG1, kappa, V domains shown)
VH: QVQLVQSGAEVKKPGASVKVSCKASGYTFTSYNMHWVRQAPGQGLEWMGVIYSGNGDTSYAQKFQGRVTMTADTSTSTAYMELSSLRSEDTAVYYCARERDTRFGNWGQGTLVTVSS
VL: DIQLTQSPSSLSASVGDRATITCRASESVDIYGNSFMHWYQQKPGKAPKLLIYLASNLESGVPSRFSGSGSRTDFTLTISSVQPEDFATYYCQQNNEDPYTFGQGTKLEIKR
notes: also called humanized SR1-5; hSR1-H2 / hSR1-L2r
On to B5, for which the “Measuring Fluorescent Intensity (MFI)” value in assay [2] amounted to 4030 MFI. For the same molecule, in assay [2], the “Percent Positive for c-Kit” value was 99.5%. Further, the binding result in assay [3], in [4], in [5] and in assay [6] was “no binding” in each case. In assay [7], the “IC50, inhibition” value came out at 142 pM. The Kd worked out at 256 pM in [8] and 404 pM in assay [9].

B6: hSR1-4 (antibody, human IgG1, kappa, V domains shown)
VH: QVQLVQSGAEVKKPGASVKMSCKASGYTFTSYNMHWVRQAPGQGLEWIGVIYSGNGDTSYAQKFQGRATLTADKSTSTAYMELSSLRSEDTAVYYCARERDTRFGNWGQGTLVTVSS
VL: DIQLTQSPSSLSASVGDRATITCRASESVDIYGNSFMHWYQQKPGKAPKLLIYLASNLESGVPSRFSGSGSGTDFTLTISSVQPEDFATYYCQQNNEDPYTFGQGTKLEIKR
notes: also called humanized SR1-4; hSR1-H3b / hSR1-L2
For the molecule B6, in [2], the “Measuring Fluorescent Intensity (MFI)” value was found to be 4960 MFI. In [2], the “Percent Positive for c-Kit” value turned out to be 99.8%. Further, the binding result in assay [3], in assay [4], in [5] and in [6] was “no binding” throughout. For the same molecule, in assay [7], the “IC50, inhibition” value worked out at 138 pM. The Kd in [8] stood at 386 pM; in assay [9], 563 pM.

B7: Murine anti-c-Kit SR1 (mSR1) (antibody, mouse IgG2a, kappa)
heavy: QVQLQQPGAELVKPGASVKMSCKASGYTFTSYNMHWVKQTPGQGLEWIGVIYSGNGDTSYNQKFKGKATLTADKSSSTAYMQINSLTSEDSAVYYCARERDTRFGNWGQGTLVTVSAAKTTAPSVYPLAPVCGDTTGSSVTLGCLVKGYFPEPVTLTWNSGSLSSGVHTFPAVLQSDLYTLSSSVTVTSSTWPSQSITCNVAHPASSTKVDKKIEPRGPTIKPCPPCKCPAPNLLGGPSVFIFPPKIKDVLMISLSPIVTCVVVDVSEDDPDVQISWFVNNVEVHTAQTQTHREDYNSTLRVVSALPIQHQDWMSGKEFKCKVNNKDLPAPIERTISKPKGSVRAPQVYVLPPPEEEMTKKQVTLTCMVTDFMPEDIYVEWTNNGKTELNYKNTEPVLDSDGSYFMYSKLRVEKKNWVERNSYSCSVVHEGLHNHHTTKSFSRTPGK
light: NIVLTQSPASLAVSLGLRATISCRASESVDIYGNSFMHWYQQKPGQPPKLLIYLASNLESGVPARFSGSGSRTDFTLTIDPVEADDAATYYCQQNNEDPYTFGGGTKLEIKRADAAPTVSIFPPSSEQLTSGGASVVCFLNNFYPKDINVKWKIDGSERQNGVLNSWTDQDSKDSTYSMSSTLTLTKDEYERHNSYTCEATHKTSTSPIVKSFNRNEC
As for B7, the “IC50, inhibition” value in assay [7] worked out at 283 pM.

As usually defined, the Kd is the constant that tells how readily two partners part at equilibrium. A low value points to higher affinity.
